Data published in the supplement of paper PMC7877785.
± gives the uncertainty stated by the source.

Assay: self-splicing fitness, log relative to wild type (ln ratio); higher = more splicing; Tetrahymena group I intron in knt gene, E. coli kanamycin selection, DiMSum; sequences stand for … in CUCUCU…GGAGGGAAAAGUUAUCAGGCAUGCACCUGGUAGCUAGUCUUUAAACCAAUAGAUUGCAUCGGUUUAAAAGGCAAGACCGUCAAAUUGCGGGAAAGGGGUCAACAGCCGUUCAGUACCAAGUCUCAGGGGAAACUUUGAGAUGGCCUUGCAAAGGGUAUGGUAAUAAGCUGACGGACAUGGUCCUAACCACGCAGCCAAGUCCUAAGUCAACAGAUCUUCUGUUGAUAUGGAUGCAGUUCACAGACUAAAUGUCGGUCGGGGAAGAUGUAUUCUUCUCAUAAGAUAUAGUCGGACCUCUCCUUAAUGGGAGCUAGCGGAUGAAGUGAUGCAACACUGGAGCCGCUGGGAACUAAUUUGUAUGCGAAAGUAUAUUGAUUAGUUUUGGAGUACUCGUGGUCG
In short: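 Colonies from six replicate transformations of E. coli BL21(DE3) were pooled and amplicon-sequenced on an Illumina HiSeq 2500. The library placed an intron with all eight P1ex-region nucleotides randomised inside the knt kanamycin-resistance gene on pET-22b(+), and cells grew overnight at 37°C or 30°C on LB agar with or without 25 μg/mL kanamycin (plus 100 μg/mL carbenicillin, 50 μM IPTG, 0.2% rhamnose). Fitness is the DiMSum error-weighted combination of wild-type-normalised replicate fold changes, kanamycin versus none.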

Sequence	self-splicing fitness (ln) (30 °C)	self-splicing fitness (ln) (37 °C)
AUAAAGCAAUAUUACGGCGA	0.447 ± 0.1	1.03 ± 0.14
AUAAAGCAAUAUUACGGGAC	-1.72 ± 0.1	-2.4 ± 0.16
AUAAAGCAAUAUUACGGGAU	-0.81 ± 0.055	-0.671 ± 0.083
AUAAAGCAAUAUUACGGGUG	-1.03 ± 0.082	-0.259 ± 0.094
AUAAAGCAAUAUUACGGGUU	-2.17 ± 0.09	-1.17 ± 0.098
AUAAAGCAAUAUUACGUACA	-0.00533 ± 0.067	0.315 ± 0.098
AUAAAGCAAUAUUACGUAGA	-2.36 ± 0.11	-0.832 ± 0.12
AUAAAGCAAUAUUACGUGUA	-1.55 ± 0.069	-0.325 ± 0.089
AUAAAGCAAUAUUACGUUAC	-2.55 ± 0.13	-0.574 ± 0.12
AUAAAGCAAUAUUACGUUUU	-2.37 ± 0.097	-1.11 ± 0.12
AUACAGCAAUAUUACGACCU	0.331 ± 0.084	0.122 ± 0.094
AUACAGCAAUAUUACGACUA	-0.177 ± 0.1	-0.541 ± 0.089
AUACAGCAAUAUUACGAGCG	-1.63 ± 0.096	-0.55 ± 0.1
AUACAGCAAUAUUACGAGGC	-2.99 ± 0.19	-2.23 ± 0.2
AUACAGCAAUAUUACGAUAA	-1.37 ± 0.099	-0.374 ± 0.11
AUACAGCAAUAUUACGAUCG	-0.733 ± 0.071	-0.839 ± 0.097
AUACAGCAAUAUUACGCCCG	-0.847 ± 0.17	-0.634 ± 0.25
AUACAGCAAUAUUACGCCUC	-2.79 ± 0.2	-1.86 ± 0.17
AUACAGCAAUAUUACGCGUA	-1.76 ± 0.11	-0.809 ± 0.097
AUACAGCAAUAUUACGCUAU	-3.03 ± 0.11	-1.29 ± 0.087
AUACAGCAAUAUUACGGCCG	-1.33 ± 0.16	-1.14 ± 0.23

Sequence	self-splicing fitness (ln) (30 °C)	self-splicing fitness (ln) (37 °C)
AUACAGCAAUAUUACGGCUC	-0.178 ± 0.075	0.157 ± 0.1
AUACAGCAAUAUUACGGGUA	-1.24 ± 0.078	-0.645 ± 0.078
AUACAGCAAUAUUACGGGUG	-1.63 ± 0.065	-1 ± 0.073
AUACAGCAAUAUUACGGGUU	-1.9 ± 0.071	-1.05 ± 0.077
AUACAGCAAUAUUACGUAUU	-3.18 ± 0.16	-2.54 ± 0.2
AUACAGCAAUAUUACGUCCU	-0.382 ± 0.073	1.06 ± 0.096
AUAGAGCAAUAUUACGAUAC	-0.998 ± 0.12	-0.0688 ± 0.19
AUAGAGCAAUAUUACGAUCU	-0.131 ± 0.12	-0.042 ± 0.17
AUAGAGCAAUAUUACGAUGG	-2.76 ± 0.21	-2.02 ± 0.31
AUAGAGCAAUAUUACGAUUG	-3.46 ± 0.2	-1.33 ± 0.15
AUAGAGCAAUAUUACGCAAC		-1.78 ± 0.41
AUAGAGCAAUAUUACGCAGU	-1.73 ± 0.16	-0.369 ± 0.19
AUAGAGCAAUAUUACGCAUU	-1.19 ± 0.096	-0.296 ± 0.1
AUAGAGCAAUAUUACGCCUA	-0.415 ± 0.11	0.144 ± 0.15
AUAGAGCAAUAUUACGCCUC	-1.52 ± 0.24	-0.831 ± 0.5
AUAGAGCAAUAUUACGCGGC	-3.33 ± 0.35	-1.78 ± 0.25
AUAGAGCAAUAUUACGGACU	-1.15 ± 0.13	-1.65 ± 0.23
AUAGAGCAAUAUUACGGCCC	-1.68 ± 0.17	-0.799 ± 0.3
AUAGAGCAAUAUUACGGGGC	-3.43 ± 0.43	-2.51 ± 0.41
AUAGAGCAAUAUUACGGUAA	-1.76 ± 0.15	-1.42 ± 0.17
AUAGAGCAAUAUUACGGUCA	-1.48 ± 0.14	-0.634 ± 0.21
